The text below walks through data of article PMC5358978, “Nuclear export receptor CRM1 recognizes diverse conformations in nuclear export signals” (eLife, 2017).

The test system of test [1] is wild type ^HsCRM1. In words: Pull-down binding assay with immobilized GST-NESs. On the set-up: species or system human. Particulars: ~5 µg immobilized GST-NESs, 7.5 µM ^ScRanGTP, 2.5 µM CRM1, 200 µL.
Test [2] deals with CRM1. The settings on record: ref Xu et al., 2012c, 2015; cited from earlier work. An excerpt:
What then are CRM1 groove features that selectively recognize the key NES features? Arrangement of hydrophobic pockets in the groove likely selects NESs with suitably placed Φ residues. Groove shape, tapering and most constricted at ^ScCRM1 Lys579 (^HsCRM1 Lys568), likely selects for NES helices that transition to strands or NES helices that end (Figure 3C). Is groove-constricting ^HsCRM1 Lys568 perhaps key for differentiating active from false positive NES sequences? We tested mutants ^HsCRM1(K568A) and ^HsCRM1(K568M) for interactions with three previously identified false positive NESs that ...

Test [3] deals with ^HsCRM1 (Homo sapiens, UniProt O14980). In words: Differential bleaching, competition titration of MBP-NES to FITC-PKI^NES and CRM1 with excess RanGTP. Format: binding.
Test [4] relates to HeLa cells. In words: In vivo NES activity assay, EYFP2-SV40^NLS-NES reporter, spinning disk confocal microscope. Particulars: EYFP2-SV40^NLS-FMRP-1b^NES expressed in HeLa cells; 60X. It counts as cell-based. An excerpt: Figure 2. Structures of NESs with non-helical sequence patterns. (A–E) FMRP^NES (light orange), SMAD4^NES (salmon), HDAC^NES (slate), Pax^NES (pale cyan) and FMRP-1b^NES (deep teal) bound to the ^ScCRM1 groove. […] Average displacements of each Φ Cα in the eight NESs (including mDia2^NES, CDC7^NES, X11L2^NES in Figure 1) from the equivalent Φ Cα of PKI^NES(Ф0L) are 1.3 ± 0.6 (Φ4), 0.8 ± 0.5 (Φ3), 0.7 ± 0.4 (Φ2), 0.9 ± 0.3 (Φ1) and 1.8 ± 0.9 (Φ0) Å. DOI: http://dx.doi.org/10.7554/eLife.23961.012 Figure 2—figure supplement 1. Electron densities of the NES peptides. […] DOI: http://dx.doi.org/10.7554/eLife.23961.013 [drawing 7] Figure 2—figure supplement 2. Engineering class 1b NESs. (A) Sequences of class 1b NESs generated from PKI^NES and FMRP^NES. […] The reactions were extensively washed and visualized with SDS/PAGE and Coomassie staining. (B) Leptomycin B (LMB) sensitive nuclear export activity of FMRP-1b^NES was verified by expressing EYFP2-SV40^NLS-FMRP-1b^NES in HeLa cells and imaged with spinning disk confocal microscope (60X). DOI: http://dx.doi.org/10.7554/eLife.23961.014 [drawing 8]

The mark [5] stands for this setting: MBP-NES competes with FITC-PKI^NES for CRM1, excess RanGTP, triplicate, brackets = 68.3% confidence interval.

Turning to “173KTLSEVEESISTLISQPN^190 [COMMD1^pep, False positive NES peptide from COMM domain-containing protein 1, class 3 match; GST fusion in pull-down]”, the “Pull-down binding to wild type ^HsCRM1” value in test [1] is “does not bind”. The “CRM1 binding of false positive NESs that match NES consensus” value in test [2] is recorded as “do not bind CRM1”. Broadly, the Kd is a measure of binding affinity in units of concentration. Read a low Kd as tighter binding. In turn, “GGS-YLKEVDQLRALERLQID [MBP-FMRP-1b^NES, Engineered class 1b NES, an alanine added to FMRP^NES; tested as MBP fusion and as EYFP2-SV40^NLS reporter]” had a Kd in test [3] (setting [5]) of 3 µM. Moreover, the “Leptomycin B (LMB) sensitive nuclear export activity” value in test [4] is listed as “verified”.

As for “MBP-CDC7^NES: MBP fusion of the NES of cell division cycle 7-related protein kinase”, in test [3] (setting [5]), binding was put at a Kd of 20 µM. That is a double-digit micromolar value. For “MBP-FMRP^NES: MBP fusion of the class 2 NES of fragile X mental retardation protein”, in test [3] (setting [5]), the Kd was 2 µM.

“MBP-HDAC5^NES: MBP fusion of the NES of Histone deacetylase 5” came in with a Kd in test [3] (setting [5]) of 1.6 µM. In test [3] (setting [5]), “MBP-Pax^NES: MBP fusion of the NES of Paxillin” registered a Kd of 0.67 µM.

In the case of “MBP-SMAD4^NES: MBP fusion of the NES of Mothers against decapentaplegic homolog 4 protein”, the Kd in test [3] (setting [5]) was 4.6 µM. Compared with the last substance, the Kd is about 6.9-fold higher.

In test [3] (setting [5]), “MBP-X11L2^NES: MBP fusion of the NES from beta-amyloid binding protein X11L2” showed a Kd of 1.5 µM.

As for YLKEVDQLRALER [MBP-FMRP-1b^NES mutant], in test [3] (excess RanGTP), the “CRM1 binding in words, differential bleaching competition” value is on record as “does not bind CRM1”. This substance yielded a Kd in test [3] (triplicate competition titrations, brackets = 68.3% confidence level, U = undetermined, NB = not binding) of 1700 µM.
